Reference: PMC12052844 (iScience, 2025)

Experiments:
EphA4 receptor on cells = EphA4 receptor on cells (UniProt Q03137); assay: flow cytometry on cells
[1] = target: T1, full-length wild-type EphB2 on the surface of Expi293F cells (mouse, UniProt P54763-3); assay: flow cytometry on cells
T1 sequence: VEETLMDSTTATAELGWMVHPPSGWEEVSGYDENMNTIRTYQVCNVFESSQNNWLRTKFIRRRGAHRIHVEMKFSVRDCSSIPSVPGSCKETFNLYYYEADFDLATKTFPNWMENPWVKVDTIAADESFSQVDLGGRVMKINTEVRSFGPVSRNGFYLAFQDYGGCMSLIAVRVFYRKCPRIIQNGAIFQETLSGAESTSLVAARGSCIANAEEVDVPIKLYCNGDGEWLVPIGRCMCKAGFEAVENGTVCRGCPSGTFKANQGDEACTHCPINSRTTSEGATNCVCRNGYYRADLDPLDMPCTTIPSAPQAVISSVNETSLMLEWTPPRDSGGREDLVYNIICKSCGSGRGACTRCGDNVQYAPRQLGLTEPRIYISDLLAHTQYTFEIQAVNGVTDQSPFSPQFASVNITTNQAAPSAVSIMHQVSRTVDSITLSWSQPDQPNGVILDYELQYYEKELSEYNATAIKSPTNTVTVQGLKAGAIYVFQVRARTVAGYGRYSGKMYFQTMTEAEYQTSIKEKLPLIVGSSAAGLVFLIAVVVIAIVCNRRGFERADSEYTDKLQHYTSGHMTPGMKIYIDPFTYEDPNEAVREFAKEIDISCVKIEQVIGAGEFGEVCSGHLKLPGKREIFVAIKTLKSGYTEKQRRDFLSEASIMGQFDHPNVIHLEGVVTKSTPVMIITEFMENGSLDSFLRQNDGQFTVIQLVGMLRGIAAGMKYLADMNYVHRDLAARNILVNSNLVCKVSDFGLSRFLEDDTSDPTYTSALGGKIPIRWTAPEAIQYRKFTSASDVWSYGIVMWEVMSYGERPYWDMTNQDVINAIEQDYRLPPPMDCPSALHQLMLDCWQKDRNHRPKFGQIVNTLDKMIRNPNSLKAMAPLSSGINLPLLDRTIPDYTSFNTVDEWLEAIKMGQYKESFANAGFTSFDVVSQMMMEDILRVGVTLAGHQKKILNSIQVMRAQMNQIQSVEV

Chain of EphA4 receptor on cells (Q03137 20-986): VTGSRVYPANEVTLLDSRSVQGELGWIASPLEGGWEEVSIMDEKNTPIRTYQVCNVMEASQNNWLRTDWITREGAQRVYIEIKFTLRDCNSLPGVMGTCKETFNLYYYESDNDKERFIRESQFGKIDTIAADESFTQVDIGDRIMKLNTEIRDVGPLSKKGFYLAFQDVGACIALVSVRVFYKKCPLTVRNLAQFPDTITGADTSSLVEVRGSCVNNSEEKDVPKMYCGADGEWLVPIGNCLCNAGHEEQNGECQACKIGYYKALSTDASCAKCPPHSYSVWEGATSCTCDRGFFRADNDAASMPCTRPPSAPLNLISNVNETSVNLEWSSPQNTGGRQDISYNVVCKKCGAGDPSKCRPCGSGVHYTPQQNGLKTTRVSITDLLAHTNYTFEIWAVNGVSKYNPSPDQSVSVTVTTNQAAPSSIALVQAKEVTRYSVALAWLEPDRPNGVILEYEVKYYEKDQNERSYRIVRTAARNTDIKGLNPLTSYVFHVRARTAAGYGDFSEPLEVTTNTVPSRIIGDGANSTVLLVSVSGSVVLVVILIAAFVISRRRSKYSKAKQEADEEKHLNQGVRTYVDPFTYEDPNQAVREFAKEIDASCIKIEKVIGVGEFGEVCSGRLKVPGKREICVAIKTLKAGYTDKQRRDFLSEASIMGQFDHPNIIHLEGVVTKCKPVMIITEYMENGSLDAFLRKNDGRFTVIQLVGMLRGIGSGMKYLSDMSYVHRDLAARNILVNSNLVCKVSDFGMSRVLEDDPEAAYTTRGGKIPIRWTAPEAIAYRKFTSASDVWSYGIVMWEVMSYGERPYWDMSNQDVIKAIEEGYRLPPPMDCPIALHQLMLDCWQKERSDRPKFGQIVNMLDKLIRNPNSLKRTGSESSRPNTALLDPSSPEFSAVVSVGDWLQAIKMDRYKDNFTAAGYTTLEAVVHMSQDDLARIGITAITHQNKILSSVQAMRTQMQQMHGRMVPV

Molecule: pre-clustered ephrin-B2 (receptor binding domain of murine ephrin-B2, residues 30-170, biotinylated) (from UniProt P52800 30-170) (ligand)
- Kd (EphA4 receptor on cells): 501 nM

B1: pre-clustered ephrin-B2 (receptor binding domain of murine ephrin-B2, residues 30-170, biotinylated) (ligand)
chain: SIVLEPIYWNSSNSKFLPGQGLVLYPQIGDKLDIICPKVDSKTVGQYEYYKVYMVDKDQADRCTIKKENTPLLNCARPDQDVKFTIKFQEFSPNLWGLEFQKNKDYYIISTSNGSLEGLDNQEGGVCQTRAMKILMKVGQD
modifications: biotin on the Avi tag (BirA)
- Kd [1]: 3.53 nM

B2: ephrin-B1 (ligand)
chain: ATPLAKNLEPVSWSSLNPKFLSGKGLVIYPKIGDKLDIICPRAEAGRPYEYYKLYLVRPEQAAACSTVLDPNVLVTCNKPHQEIRFTIKFQEFSPNYMGLEFKKYHDYYITSTSNGSLEGLENREGGVCRTRTMKIVMKVGQDPNAVTPEQLTTSRPSKESDNTVKTATQAPGRGSQGDSDGKHETVNQEEKSGPGAGGGGSGDSDSFFNSK
- Kd [1]: 6.64 nM

B3: pre-clustered ephrin-A5 (receptor binding domain of murine ephrin-A5, residues 28-164, biotinylated) (ligand)
chain: VADRYAVYWNSSNPRFQRGDYHIDVCINDYLDVFCPHYEDSVPEDKTERYVLYMVNFDGYSACDHTSKGFKRWECNRPHSPNGPLKFSEKFQLFTPFSLGFEFRPGREYFYISSAIPDNGRRSCLKLKVFVRPTNSC
modifications: biotin on the Avi tag (BirA)
- Kd [1]: 112 nM
